This is an account of results in paper PMC3411838.

For the experiment, the target named is T1, Myc-tagged CARMA1-CARD (wild type) (mouse) (UniProt Q8CIS0).
T1 sequence: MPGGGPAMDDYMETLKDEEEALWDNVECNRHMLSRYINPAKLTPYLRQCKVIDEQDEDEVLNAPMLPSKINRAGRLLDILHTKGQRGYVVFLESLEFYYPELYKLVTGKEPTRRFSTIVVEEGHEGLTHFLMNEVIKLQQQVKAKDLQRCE

B1: full-length BCL10 E50A (pEGFP-C1) (natural protein)
chain: MEAPAPSLTEEDLTEVKKDALENLRVYLCEKIIAERHFDHLRAKKILSRADTEEISCRTSSRKRAGKLLDYLQENPRGLDTLVESIRREKTQSFLIQKITDEVLKLRNIKLEHLKGLKCSSCEPFAAGATNNLSRCNSDESNLSEKQRASTVMYHPEGESSTAPFFSMASSLNLPVLEVGRTENSSFSSATLPRPGDPGAPPLPPDLRLEEGGSCGNSSEMFLPLRSRALSRQ
B1: the NF-κB activation-dependent dual luciferase reporter in HEK293T, full-length BCL10 mutant against wild type (CARMA1 not co-transfected) was under 40%.

B2: full-length BCL10 E53A (pEGFP-C1) (natural protein)
chain: MEAPAPSLTEEDLTEVKKDALENLRVYLCEKIIAERHFDHLRAKKILSREDTAEISCRTSSRKRAGKLLDYLQENPRGLDTLVESIRREKTQSFLIQKITDEVLKLRNIKLEHLKGLKCSSCEPFAAGATNNLSRCNSDESNLSEKQRASTVMYHPEGESSTAPFFSMASSLNLPVLEVGRTENSSFSSATLPRPGDPGAPPLPPDLRLEEGGSCGNSSEMFLPLRSRALSRQ
Consider B2, for which the NF-κB activation-dependent dual luciferase reporter in HEK293T, full-length BCL10 mutant against wild type (CARMA1 not co-transfected) was under 40%.

B3: full-length BCL10 E54A (pEGFP-C1) (natural protein)
chain: MEAPAPSLTEEDLTEVKKDALENLRVYLCEKIIAERHFDHLRAKKILSREDTEAISCRTSSRKRAGKLLDYLQENPRGLDTLVESIRREKTQSFLIQKITDEVLKLRNIKLEHLKGLKCSSCEPFAAGATNNLSRCNSDESNLSEKQRASTVMYHPEGESSTAPFFSMASSLNLPVLEVGRTENSSFSSATLPRPGDPGAPPLPPDLRLEEGGSCGNSSEMFLPLRSRALSRQ
B3 yielded an NF-κB activation-dependent dual luciferase reporter in HEK293T, full-length BCL10 mutant against wild type (CARMA1 not co-transfected) of under 40%.
